Laboratory results taken from the nanobody polyreactivity screen of Harvey et al. (2022).

Experiment: yeast display, Sf9 membrane polyspecificity reagent, FACS + sequencing; frameworks hold sequencing errors
Outline: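 Galactose-induced (36–48 hours) yeast carrying a synthetic nanobody display library were exposed to 10% biotinylated, detergent-solubilized Sf9 membrane reagent at 4 °C for 1 hour. FACS followed streptavidin microbead enrichment, using low and high (top ~1%) gates for expression (anti-HA) and reagent binding (streptavidin). Colony PCR, MiSeq 2 × 250 sequencing and CDR-length filtering followed. Labels for polyreactivity reflect the gate of origin.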

Row | Sequence | polyreactivity (PSR sort gate)
1 | QVQLVESGGGLVQAGGSLRLSCAASGSIFDRYAMGWYRQAPGKERELVAAITGSGGSTYYADSVKGRFTISRDNAKNTVYLQMNSLKPEDTAVYYCNARARGAYVRYGYWGQGTQVTVSS | high polyreactivity
2 | QVQLVESGGGLVQAGGSLRLSCAASGSIFDSNAKGWYRQAPGKERELVAAITGSGSTNYADSVKGRFTFSRDNAKNTVYLQMNSLKPEDTAVYYCNAQAPYTEFDYWGQGTQVTVSS | low polyreactivity
3 | QVQLVESGGGLVQAGGSLRLSCAASGSIFDSNAMGWYRQAPGKERELVAAIDDSGATTYYADSVKGRFTISPDNAKNTVYLQLNSLKPEDTAVYYCAAETYTGSLAYYREYYYWGQGTQVTVSS | low polyreactivity
4 | QVQLVESGGGLVQAGGSLRLSCAASGSIFDSNNMVWYRQAPGKERELVAGISTGGSTNYADSVKGRFTISRDNAKNTVYLQMNSLKPEDTAVYYCNADLGSSYDWGQGTQVTVSS | low polyreactivity
5 | QVQLVESGGGLVQAGGSLRLSCAASGSIFDSYAMGWYRQAPGKERELVASISRRGGTTYYADSVKGRFTISRDNAKNTGYLQMNSLKPEDTAVYYCAKVGSLYQPSRYDYWGQGTQVTVTS | high polyreactivity
6 | QVQLVESGGGLVQAGGSLRLSCAASGSIFDTYAMGWYRQAPGKEREVVAAITWSGSSTYYADSVKGRFTISRDNAKNTVYLQMNSLKPEDTAVYYCAAEVSGKYFLFDYWGQGTQVTVSS | high polyreactivity
7 | QVQLVESGGGLVQAGGSLRLSCAASGSIFDVNAMGWYRQAPGKERELVAAISDSGGSTFYADSVKGRFTISRDNAKNTVYLQMNTLKPEDTGVYYCNTEDFFNVPEMDSWGQGTQVTVSS | low polyreactivity
8 | QVQLVESGGGLVQAGGSLRLSCAASGSIFDVYAMGWYRQAPGKERELVAAINGGGSTYYADSVKGRFTISRDNAKNTVYLQMNSLKPEDTAVYYCAADRYYYAYRYYPSGYWGQGTQVTVSS | low polyreactivity
9 | QVQLVESGGGLVQAGGSLRLSCAASGSIFDVYAMGWYRQAPGKERELVAAIRTRGGSTYYADSVKGRFTISRDNAKNTVYLQMNSLKPEDTAVYYCAAGGETVIPWFDDYYWGQGTQVTVSS | low polyreactivity
10 | QVQLVESGGGLVQAGGSLRLSCAASGSIFDVYAMGWYRQAPGKERELVAGISRSGGSTYYADSVKGRFTISRDNAKNTVYLQMNSLKPEDTAVYYCAARYTYYRGRYDYWGQGTQVTVSS | low polyreactivity
11 | QVQLVESGGGLVQAGGSLRLSCAASGSIFDVYAMGWYRQAPGKERELVATISNSAGSTYYADSVKGRFTISRDNAKKTVYLQMNSLKPEDTAVYYCAAVVLYFEEYDYWGQGTQVTVSS | low polyreactivity
12 | QVQLVESGGGLVQAGGSLRLSCAASGSIFDVYAMGWYRQAPGKERELVATMSNSAGSTYYADSVKGRFTISRDNAKYTVYLQMNSLKPEDTAVYYCAAVVVYFDEYDYWGQGTQVTVSS | low polyreactivity
13 | QVQLVESGGGLVQAGGSLRLSCAASGSIFDVYTMGWDREAPGKERELVAAINTGGGSTYYADSVKGRFTISRDNAKNTVYLQMNSLKPEDTAVYYCAASVYHYGPLYYWGQGTQVTVSS | low polyreactivity
14 | QVQLVESGGGLVQAGGSLRLSCAASGSIFDWYDMGWYRQAPRKEGELVAAISSGDSSYYADSVKGRFTISRDNAKNTVYFQIISLKPEDTAVYFCAAVTKLSGIRYNYWGQGTQLTVSS | low polyreactivity
15 | QVQLVESGGGLVQAGGSLRLSCAASGSIFDYNAMGWYREAAGKEREFVASITYSGGSTNYADSVKGRFTISRDNAKNTVYLQMNSLKPEDTAVYYCSKTIGIVWIYYPGARYEDWGQGTQVTVSS | low polyreactivity
16 | QVQLVESGGGLVQAGGSLRLSCAASGSIFDYNAMGWYRQATGKERELVAAISSDGSTYYADSVKGRFTISRDNAKNSVYLQMNSLKPEDTAVYYCAADSVYSWSDYWGQGTQVTVSS | low polyreactivity
17 | QVQLVESGGGLVQAGGSLRLSCAASGSIFDYNCMGWYRQAPGKESELVATITLSTARTYYADSVKGRFTISRDNAKNTVYLQMNRLKPEDTAVYYCATRYPKFRRRNYWGQGTQVTVSS | high polyreactivity
18 | QVQLVESGGGLVQAGGSLRLSCAASGSIFDYYTMGWYRQAPGKERELVASITQSGGSTYYADSVKGRFTISRDNAKNTVYLQMNSLIPEDTAVYYCAADFSIVKMDYWGQGTQVTVSS | low polyreactivity
19 | QVQLVESGGGLVQAGGSLRLSCAASGSIFEAYAMGWYRQAPGKERELVAAITQSGGSTYYADSVKGRFTISRDNAKNTVYLQMNSLKPEDTAVYYCAADFKYRGPSGDYDYWGQGTQVTVSS | low polyreactivity
20 | QVQLVESGGGLVQAGGSLRLSCAASGSIFEENAMGWYRQAPGKERELVAAITIGGRTNYADSVKGRFTISRDNAKNTVYLQMNSLKPEDTAVYYCAADLSSNKFWRFWTRYYYWGQGTQVTVSS | low polyreactivity
21 | QVQLVESGGGLVQAGGSLRLSCAASGSIFEGNAMGWSRQAPGKERELVAAITGRGGSTYYADSVKGRFTISRDNAKNTVYLQMNSLKPEDTAVYYCAARVRRLSSIIYYYWGQGTQVTVSS | high polyreactivity
22 | QVQLVESGGGLVQAGGSLRLSCAASGSIFEGNAMGWYRQAPGKERELVAAISRRGGRTYYADSVKGRFTISRDNAKNTVYLQMNSLKPEDTAVYYCNALYFRDGRYQTYSDKFDYWGQGTQVTVSS | high polyreactivity

Row | Sequence | polyreactivity (PSR sort gate)
23 | QVQLVESGGGLVQAGGSLRLSCAASGSIFEHNSMGWYSQAPGKERELGAAITISGGGTYYADSVKGRFTISRDNAKNTVYLQMNSLKPEDTAVYYCNRDKPGLVFTSYNYSSSYDYWGPGTQVTVSS | low polyreactivity
24 | QVQLVESGGGLVQAGGSLRLSCAASGSIFEKNAMGWYRQEPGKEWELFAAISSSGGRTNYADSVKGRFTISRDNAKNTVYLHMNSLKPEDTAVYYCAAYRRGHRYTGYEYWGQGTQVTVSS | high polyreactivity
25 | QVQLVESGGGLVQAGGSLRLSCAASGSIFEKYAMGWYRQAPGKERELVAAISRGTNTKYADSVKGRFTISRDNAKNTVYLQMNSLKPEDTAVYNGAARYNTYRTRIYSMDYWGQGTQVTVSS | high polyreactivity
26 | QVQLVESGGGLVQAGGSLRLSCAASGSIFELNAMGWYRQAPGKERELVAAITSSGSSTYYADSVKGRFTISRDNAKNTVYLQMNSLKPEDTAVYYCFRPHDYWGQGTQVTVTS | low polyreactivity
27 | QVQLVESGGGLVQAGGSLRLSCAASGSIFEPNAMGWYRQAPGKERELVASITSGGTTYADSVKGRFTISRDNAKNTVYLQMNSLKPEDTAVYYCNARVKAFFDPSQYLYGHDYWGQGTQVTVSS | low polyreactivity
28 | QVQLVESGGGLVQAGGSLRLSCAASGSIFEPYAMGWYRQAPGKERELVAAISSGTSTYYADSVKGRFTISRDNAKNTVYLQLNSLKPEDTAVYYCAAEEQIPWTNNAKYYYWGQGTQVTVSS | low polyreactivity
29 | QVQLVESGGGLVQAGGSLRLSCAASGSIFESNAMGWYRQAPGKEREFVAAIDQNDGSTNYADSVKGRFTISRDNAKNTVYLQMNSLKPEDTAVYYCAKYWGYLGYYEFDYWGQGTQVTVSS | low polyreactivity
30 | QVQLVESGGGLVQAGGSLRLSCAASGSIFESNGMGWYRPAPGKERELVASISNGDITYYADSVKGRFTISRDNAKNTVYLQMISVKPEYTAVYYCAATLYRNYVIFRYDYWGQGTQLTVSS | low polyreactivity
31 | QVQLVESGGGLVQAGGSLRLSCAASGSIFEVYAMGWYRQAPGKERELVAAIDYSDGTTYYADSVKGRFTISRDNAKNTVYLQMNSLKPEDTAGYYCAADFPGQHYDYWGQGTQVTVSS | low polyreactivity
32 | QVQLVESGGGLVQAGGSLRLSCAASGSIFEWYAMGLYRQAPGKETELVAAISSGGRTYYADSVKGRFTISRDNAKNTVYLQMNSLKPEDTAVYYCAGRDVDHVGGSKYYYWGQGTQVTVSS | high polyreactivity
33 | QVQLVESGGGLVQAGGSLRLSCAASGSIFEWYAMGWYRQAPGKERELVAAIDISGGDTYYADSVKGRFTISHDNAKNNVYLQRNSLKPEDTAVYYCAATRPASYAAYDYWGQGTQVTVSS | high polyreactivity
34 | QVQLVESGGGLVQAGGSLRLSCAASGSIFEWYAMGWYRQAPGKERELVADITYNGGSTYYADSVKGRFTISRDNAKNTVYLQMNSLKPEDTAVYYCAADYFVQVPDYYYASEYGYWGQATQVTVSS | low polyreactivity
35 | QVQLVESGGGLVQAGGSLRLSCAASGSIFEWYAMGWYRQAPGKVRELVADITYNGGSTYYADSVKGRFTISRDNAKNTVYLQMNSLKPEDTAVYYCAADYFVQVPDYYYASEYGYWGQGTQVTVSS | low polyreactivity
36 | QVQLVESGGGLVQAGGSLRLSCAASGSIFEYNAMGWYRQAPGKERELVAAITRGGNTYYADSVKGRFTISRDNAKNTVYLQMNSLKPEDTAVYYCAAVQWYGYPYYSWGQGTQVIVSS | low polyreactivity
37 | QVQLVESGGGLVQAGGSLRLSCAASGSIFEYNDMGWYRQAPGKEREMVSAISWNGGSTYYADSVKGRFTISRDNAKNTVYLQMNSLKPEDTAVYYCAADGDPLWVASEYDSWGQGTQVTVSS | low polyreactivity
38 | QVQLVESGGGLVQAGGSLRLSCAASGSIFEYYAMGWYRQAPGKEREFVAAISDNGDSTYYADSVKGRFTISRDNAKNTVYLQMNSLKPEDTAVYYCAVRKAYQYGFYYWGQGTQLTVSS | low polyreactivity
39 | QVQLVESGGGLVQAGGSLRLSCAASGSIFEYYAMGWYRQAPGKERELVATITTRGGSTYYADSVKGRFTLSRDNAKNTVSLQMKCLKPEDTAVYYCNARAAYYGRGTLLRRNYWGQGTQVTVSS | high polyreactivity
40 | QVQLVESGGGLVQAGGSLRLSCAASGSIFEYYTMGWYRQAPGKERELVAGISWSGGSTYYADSVKGRFTISRDNAKNTVYLQMNSLKPEDTAVYYCAAGRTGWYWDSGSTYRYGYGYWGQGTQVTVSS | high polyreactivity
41 | QVQLVESGGGLVQAGGSLRLSCAASGSIFEYYTMGWYRQAPGKERELVATISRSADRTYYADSVKGRFTISRDNAKNTVYLQMNSLKPEDTAVDYCAKRYPRTTQWIYDYWGQGTQVTVSS | high polyreactivity
42 | QVQLVESGGGLVQAGGSLRLSCAASGSIFFANAMGWYRPAPGKERELVATITSGGSTTYADSLKGRFTISRDNAKNTVYLQMNSLKPEDTAVYYCNADYDYGWVFYSNYDYWGQGTQVTVSS | low polyreactivity
43 | QVQLVESGGGLVQAGGSLRLSCAASGSIFFANAMGWYRQAPGKERELVATITSGGSTTYADSVKGRFTISRDNAKNTVYLQMNSLKPEDTAVYYCNADYDYGWVFYSNYDYWGQGTQVTVSS | low polyreactivity
